Experimental data from patent publication US20060216339.

Key:
[1] = tested on: purified recombinant Elk1 protein (Elk1-GST fusion protein) [GST: P08515]
[2] = tested on: recombinant mammalian ERK2 (MAPK p42 protein, bacterial recombinant, already containing phospho-tyrosine-185)

Sequence of purified recombinant Elk1 protein (Elk1-GST fusion protein) [GST: P08515] (P08515 whole entry, looked up, the tested form may be a part): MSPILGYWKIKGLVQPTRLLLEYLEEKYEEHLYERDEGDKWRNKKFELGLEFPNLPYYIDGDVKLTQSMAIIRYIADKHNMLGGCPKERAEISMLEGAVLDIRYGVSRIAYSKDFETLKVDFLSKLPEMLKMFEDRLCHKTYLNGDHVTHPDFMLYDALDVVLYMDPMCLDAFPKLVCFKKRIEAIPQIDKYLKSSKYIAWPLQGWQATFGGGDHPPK

Substance | phosphorylation of Elk1 at Ser^383 (Western blot with Ab^pElk1) [1] | ERK2 activity (production of phospho-Elk1) [2]
ERK2 activated by apPKG (doubly phosphorylated, T183 and Y185) | ERK2 activity was measured by the phosphorylation of Elk1 at Ser^383 | 
MEK1 (MAP kinase kinase 1)-GST fusion protein, activated by the catalytic subunit of MEKK1 |  | MEK1, which produces the maximally activated kinase
active apMAPK (phospho-apMAPK, dually phosphorylated at the T-E-Y site) | the apPKG-activated ap-MAPK phosphorylated its physiological substrate, Elk1, at the appropriate Ser^383 | 
